Test results: patent US20220306744A1 (CRESCENDO BIOLOGICS, published 2022)

Legend:
[1] = target: T1, human PD-1 expressed on cells (CHO TREX human PD1 cell line, full-length human PD-1 sequence) (human, UniProt Q15116 21-288); assay: epitope competition assay on CHO human PD1 cells (labelled VH not specified) after 7 days in human serum
T1 construct: Also used for human PD-1 on Jurkat reporter cells, on PathHunter cells and on PHA-stimulated human CD4+ T cells; also called CHO human PD1 cells; CHO human PD-1 cells
Experimental: (§1) Serum stability of VH and multivalent VH constructs was assessed by measurement of their activity following incubation for 0, 1, 4 or 7 days both in mouse (Sigma M5905) and human serum. […] Minimal loss of activity was observed following incubation with serum.

[2] = target: T1, human PD-1 expressed on cells (CHO TREX …); assay: epitope competition assay on CHO human PD1 cells (labelled VH not specified) after 1 day in human serum
Experimental: as §1

[3] = target: T1, human PD-1 expressed on cells (CHO TREX …); assay: epitope competition assay on CHO human PD1 cells (labelled VH not specified) after 7 days in mouse serum
Experimental: as §1

[4] = target: T2, cynomolgus PD-1 recombinant protein (Acro Biosystems cat no. PD-1-C5254) (cynomolgus); assay: HTRF binding assay, 2 nM recombinant PD1, anti His-D2 and anti human-Fc cryptate
T2 construct: Bought protein; also called cyno PD1
Experimental: (§2) Purified VH were tested for their ability to bind to human PD1 (R&D Systems cat no. 1086-PD), cynomolgus PD-1 (Acro Biosystems cat no. PD-1-C5254) and mouse PD1 (R&D Systems cat no. 1021-PD) in an HTRF Binding assay format. All reagents and serially diluted VH were prepared in assay buffer containing PBS, 0.1% BSA and 0.4M Potassium Fluoride. Samples or assay buffer (non-specific binding) were incubated with 2 nM human/cynomolgus or mouse PD1, 1 nM Anti human-Fc Cryptate PAb (Cisbio cat. no. 61HFCKLB) and 30 nM anti His-D2 (CisBio cat no 61HISDLA) in black 384-shallow well assay plates for a minimum of 3 hours at room temperature. Time-resolved fluorescent emission at 620 nm and 665 nm was measured following excitation at 337 nm on the BMG PHERAstar plate reader. The HTRF ratio were calculated ((665 nm emission/620 nm emission)*10000) and the data corrected for (non-specific binding) to give the specific binding signal.

[5] = target: T3, recombinant human PD-1 Fc chimera (human, UniProt Q15116 25-167); assay: as above
T3 construct: Bought protein (R&D 1086-PD in the HTRF assay); also called human PD-1-hu Fc; huPD-1Fc; not shown: human Fc
Experimental: as §2

[6] = target: T1, human PD-1 expressed on cells (CHO TREX …); assay: FMAT epitope competition, CHO human PD1 cells; competitor Epitope 2 (2.1-Strep tagged protein)
Experimental: (§3) For the epitope competition assay reagents were prepared in FMAT assay buffer.
(§4) Multivalent molecules 1.92b-4GS-1.39a and 1.92b-4gs-1.62a were tested in the epitope competition assay as described above. 1.92b-4GS-1.39a and 1.92b-4gs-1.62 did cross compete with 1.1-Strap tagged and 2.1-Strap tagged proteins for binding to the cells.
(§5) Plates were incubated for a minimum of 1.5 hours at room temperature then fluorescence measured in the FL2 (502 nm-537 nm) and FL5 (677-800 nm) channels on the Mirrorball plate reader (TTP) following excitation at 488 nm and 640 nm. Data was expressed as a % of the total binding control (i.e. % control) after subtraction of the background signal determined from the non-specific binding control wells.

[7] = target: T1, human PD-1 expressed on cells (CHO TREX …); assay: epitope competition assay on CHO human PD1 cells (labelled VH not specified) after 4 days in human serum
Experimental: as §1

[8] = target: T1, human PD-1 expressed on cells (CHO TREX …); assay: FMAT epitope competition, CHO human PD1 cells; competitor Epitope 1 (1.1-Strep tagged protein)
Experimental: as §3, §4, §5

[9] = target: T1, human PD-1 expressed on cells (CHO TREX …); assay: epitope competition assay on CHO human PD1 cells (labelled VH not specified) after 0 days in mouse serum
Experimental: as §1

[10] = target: T1, human PD-1 expressed on cells (CHO TREX …); assay: cell-based or functional assay
[11] = target: T1, human PD-1 expressed on cells (CHO TREX …); assay: flow cytometry, PHA-stimulated human CD4+ T cells, Donor 2
Experimental: Binding of monovalent single domain antibodies and multivalent binding agents to T cells was measured using flow cytometry. Peripheral blood mononuclear cells (PBMCs) were isolated from human blood by density gradient centrifugation then CD4+ T cells purified using a negative selection isolation kit according to the manufacturer's protocol (Miltenyi Biotech cat no 130-096-533). T-cells were stimulated with 2.5 μg/ml PHA for 3 days in RPMI media supplemented with 10% FBS, 2 mM Glutamine, 1× Pen/Strep. Cells were transferred into 96 well plates (75000 per well), blocked for 10 mins with PBS/1% BSA, then incubated with serially diluted VH in staining buffer (PBS/1% BSA) for 1 hour at 4° C. Cells were washed with staining buffer by centrifugation then incubated with 10 μg/ml biotinylated Anti His antibody for 40 mins at 4° C. Cells were washed again then stained with Streptavidin Alexa Fluor-488 (10 μg/ml) and 1:5000 diluted Live Dead near IR stain (Molecular Probes cat no. L10119) for 30 mins at 4° C. After further washing cells were fixed and fluorescence measured by flow cytometry.

T1 sequence (Q15116 21-288): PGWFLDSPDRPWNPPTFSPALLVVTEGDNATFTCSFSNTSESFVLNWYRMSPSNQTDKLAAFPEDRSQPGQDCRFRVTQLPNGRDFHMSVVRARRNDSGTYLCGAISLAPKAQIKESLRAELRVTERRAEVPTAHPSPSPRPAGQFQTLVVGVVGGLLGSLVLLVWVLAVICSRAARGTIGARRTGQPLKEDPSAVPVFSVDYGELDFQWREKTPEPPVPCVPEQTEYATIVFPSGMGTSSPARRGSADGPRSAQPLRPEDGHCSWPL
T3 sequence (Q15116 25-167 limits assumed, change not shown): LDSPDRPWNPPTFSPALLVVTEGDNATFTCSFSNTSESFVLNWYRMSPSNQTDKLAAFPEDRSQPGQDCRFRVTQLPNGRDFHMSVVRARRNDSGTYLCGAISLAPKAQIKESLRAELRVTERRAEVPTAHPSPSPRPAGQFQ

Row | IC50 [1] | IC50 [2] | IC50 [3] | EC50 [4] | EC50 [5] | EC50 [6] | IC50 [7] | EC50 [8] | IC50 [9] | EC50 (M), NFAT-Luciferase reporter gene assay [10] | EC50 [11] | Binder
1 | 1.1 nM | 1.3 nM | 2 nM | 3.9 nM | 2.1 nM | 1 nM | 1.1 nM | 1 nM | 1.7 nM | 1.2e-09 M | 0.4 nM | 1.92b-4GS-1.62a (other, Biparatopic VH-linker-VH; also called 1.92-4GS-1.62a; 1.92b-4gs-2.12a) EVQLVESGGGLVKPGGSLRLSCAASGFTFSDESMTWMRQAPGKGLEWVSYISSGGGVKFYADSVKGRFTISRDNAKNSLYLQMNSLRAEDTAVYYCAREAPLRLGESPHDAFDISGQGTMVTVSSGGGGSGGGGSGGGGSGGGGSEVQLVESGGGVVRPGGSLRLSCAASGFTFDDYAMSWVRQAPGKGLEWVSGITWNAGSTGYADSVKGRFTISRDNAKNSLYLQMNSLRAEDTALYYCVRDKYSYAWSYDDFDIWGQGTMVTVSS
2 | 1 nM | 0.9 nM | 1.8 nM | 3.7 nM | 2.1 nM | 1.2 nM | 1.1 nM | 1.1 nM | 1.2 nM | 2e-09 M | 0.6 nM | 1.92b-4GS-1.39a (other, Biparatopic VH-linker-VH; built from its parts here because it is not clear whether 1112 is the protein or the nucleic acid) EVQLVESGGGLVKPGGSLRLSCAASGFTFSDESMTWMRQAPGKGLEWVSYISSGGGVKFYADSVKGRFTISRDNAKNSLYLQMNSLRAEDTAVYYCAREAPLRLGESPHDAFDISGQGTMVTVSSGGGGSGGGGSGGGGSGGGGSEVQLVESGGGLVQPGRSLRLSCAASGFTFDDYALHWVRQAPGKDLEWVSGISWNGGSYGYADSVKGRFTISRDNAKNSLYLQMNSLRAEDTALYYCVREKGPGLTGSTADYYGLDAWGQGTMVTVSS
